Laboratory results from paper PMC8413894.

Molecular target: BACE1-GFP (UniProt P56817)
Test: co-IP

UniProt P56817, sequence (P56817 46-501): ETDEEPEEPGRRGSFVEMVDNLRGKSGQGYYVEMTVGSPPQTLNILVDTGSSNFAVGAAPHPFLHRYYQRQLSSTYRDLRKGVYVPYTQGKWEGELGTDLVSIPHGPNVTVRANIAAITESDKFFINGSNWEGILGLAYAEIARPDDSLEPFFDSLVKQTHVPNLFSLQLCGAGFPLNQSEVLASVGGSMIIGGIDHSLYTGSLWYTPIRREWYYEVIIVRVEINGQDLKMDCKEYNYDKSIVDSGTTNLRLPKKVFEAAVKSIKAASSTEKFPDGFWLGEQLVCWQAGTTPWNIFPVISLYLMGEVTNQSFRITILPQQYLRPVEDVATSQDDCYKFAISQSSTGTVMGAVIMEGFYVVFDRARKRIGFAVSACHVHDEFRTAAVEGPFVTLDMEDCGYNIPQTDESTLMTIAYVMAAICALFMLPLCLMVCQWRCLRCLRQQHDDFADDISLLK

percent reduction of co-immunoprecipitated Bin1 against Bin1-WT: 65%
Substance: Bin1-KR (siRNA-resistant neuronal Bin1-MYC with the LOAD mutation K358R, rs138047593) (from UniProt O08539-1 1-588) (natural protein)
